Laboratory results: paper PMC11415397, “The Alpha-Synuclein Gene (SNCA) is a Genomic Target of Methyl-CpG Binding Protein 2 (MeCP2)—Implications for Parkinson’s Disease and Rett Syndrome”

B1: SNCA intron 1 CpG1 probe, methylated (dsDNA)
DNA 1: GTGCCCTGGTCTGG
DNA 2: CTGGCTTTCGTCCTGCTTCTGATATTCCCTTCTC
DNA 3: GAGAAGGGAATATCAGAAGCAGGACGAAAGCCAGCCAGACCAGGGCAC
modifications: CpG 5mC, in vitro methylated (enzyme for the probe not stated in EMSA section)
B2: SNCA intron 1 CpG2 probe, methylated (dsDNA)
DNA 1: GTGCCCTGGTCTGG
DNA 2: GCTGAGAGATTAGGCTGCTTCTCCGGGATCCGC
DNA 3: GCGGATCCCGGAGAAGCAGCCTAATCTCTCAGCCCAGACCAGGGCAC
modifications: CpG 5mC, in vitro methylated (enzyme for the probe not stated in EMSA section)

Tests used:
MeCP2 R255X [1] = biological target: T1, MeCP2 R255X (UniProt P51608 1-254); experiment: EMSA; shift from 30 nM; 10 mM Tris pH 7.5, 1 mM EDTA, 100 mM KCl, 100 uM DTT, 5% glycerol, 10 ug/ml BSA, 30 min room temperature; 50 fmol probe in 5 ul; MeCP2 30-75 (nmol in Methods and legend, nM in Results); details: protein: recombinant; tags: His; label: IRDye700 at 5' of LUEGO (S27); three strands: S27 and S23 lie side by side (nick) on S24; blunt
MeCP2 wild type = MeCP2 wild type (UniProt P51608 1-486); experiment: as above; details: protein: recombinant; tags: His; label: IRDye700 at 5' of LUEGO (S27); three strands: S27 and S23 lie side by side (nick) on S24; blunt
MeCP2 R255X [2] = biological target: T1, MeCP2 R255X; experiment: EMSA; strongest shift, already at 30 nM; 10 mM Tris pH 7.5, 1 mM EDTA, 100 mM KCl, 100 uM DTT, 5% glycerol, 10 ug/ml BSA, 30 min room temperature; 50 fmol probe in 5 ul; MeCP2 30-75 (nmol in Methods and legend, nM in Results); details: protein: recombinant; tags: His; label: IRDye700 at 5' of LUEGO (S27); three strands: S27 and S25 lie side by side (nick) on S26; blunt

Row | Binder | binding result (MeCP2 R255X [1]) | binding result (MeCP2 wild type) | binding result (MeCP2 R255X [2])
1 | B1 | binds | binds | –
2 | B2 | – | – | binds
